Data as given in IntAct's records for PubMed 32494073.

B1: Calcium uptake protein 2, mitochondrial (Homo sapiens), Q8IYU8 (parent)
chain: MAAAAGSCARVAAWGGKLRRGLAVSRQAVRSPGPLAAAVAGAALAGAGAAWHHSRVSVAARDGSFTVSAQKNVEHGIIYIGKPSLRKQRFMQFSSLEHEGEYYMTPRDFLFSVMFEQMERKTSVKKLTKKDIEDTLSGIQTAGCGSTFFRDLGDKGLISYTEYLFLLTILTKPHSGFHVAFKMLDTDGNEMIEKREFFKLQKIISKQDDLMTVKTNETGYQEAIVKEPEINTTLQMRFFGKRGQRKLHYKEFRRFMENLQTEIQEMEFLQFSKGLSFMRKEDFAEWLLFFTNTENKDIYWKNVREKLSAGESISLDEFKSFCHFTTHLEDFAIAMQMFSLAHRPVRLAEFKRAVKVATGQELSNNILDTVFKIFDLDGDECLSHEEFLGVLKNRMHRGLWVPQHQSIQEYWKCVKKESIKGVKEVWKQAGKGLF
B2: Calcium uptake protein 1, mitochondrial (Homo sapiens), Q9BPX6 (parent)
chain: MFRLNSLSALAELAVGSRWYHGGSQPIQIRRRLMMVAFLGASAVTASTGLLWKRAHAESPPCVDNLKSDIGDKGKNKDEGDVCNHEKKTADLAPHPEEKKKKRSGFRDRKVMEYENRIRAYSTPDKIFRYFATLKVISEPGEAEVFMTPEDFVRSITPNEKQPEHLGLDQYIIKRFDGKKISQEREKFADEGSIFYTLGECGLISFSDYIFLTTVLSTPQRNFEIAFKMFDLNGDGEVDMEEFEQVQSIIRSQTSMGMRHRDRPTTGNTLKSGLCSALTTYFFGADLKGKLTIKNFLEFQRKLQHDVLKLEFERHDPVDGRITERQFGGMLLAYSGVQSKKLTAMQRQLKKHFKEGKGLTFQEVENFFTFLKNINDVDTALSFYHMAGASLDKVTMQQVARTVAKVELSDHVCDVVFALFDCDGNGELSNKEFVSIMKQRLMRGLEKPKDMGFTRLMQAMWKCAQETAWDFALPKQ
partner: B1 chain

Variants of: B1
Settings: with micu1_human MICU1, Q9BPX6

Row | Variant | effect of a mutation on the interaction
1 | MAAAAGSCARVAAWGGKLRRGLAVSRQAVRSPGPLAAAVAGAALAGAGAAWHHSRVSVAARDGSFTVSAQKNVEHGIIYIGKPSLRKQRFMQFSSLEHEGEYYMTPRDFLFSVMFEQMERKTSVKKLTKKDIEDTLSGIQTAGCGSTFFRDLGDKGLISYTEYLFLLTILTKPHSGFHVAFKMLDTDGNEMIEKREFFKLQKIISKQDDLMTVKTNETGYQEAIVKEPEINTTLQMRFFGKRGQRKLHYKEFRRFMENLQTEIQEMEFLQFSKGLSFMRKEDFAEWLLFFTNTENKDIYWKNVREKLSAGESISLDEFKSFCHFTTHLEDFAIAMQMFSLAHRPVRLAEFKEAVKVATGQELSNNILDTVFKIFDLDGDECLSHEEFLGVLKNRMHRGLWVPQHQSIQEYWKCVKKESIKGVKEVWKQAGKGLF [R352E] | disrupting interaction strength

Variants of: B2
Settings: with micu2_human MICU2, Q8IYU8

Row | Variant | effect of a mutation on the interaction
2 | MFRLNSLSALAELAVGSRWYHGGSQPIQIRRRLMMVAFLGASAVTASTGLLWKRAHAESPPCVDNLKSDIGDKGKNKDEGDVCNHEKKTADLAPHPEEKKKKRSGFRDRKVMEYENRIRAYSTPDKIFRYFATLKVISEPGEAEVFMTPEDFVRSITPNEKQPEHLGLDQYIIKRFDGKKISQEREKFADEGSIFYTLGECGLISFSDYIFLTTVLSTPQRNFEIAFKMFDLNGDGEVDMEEFEQVQSIIRSQTSMGMRHRDRPTTGNTLKSGLCSALTTYFFGADLKGKLTIKNFLEFQRKLQHDVLKLEFERHDPVDGRITERQFGGMLLAYSGVQSKKLTAMQRQLKKHFKEGKGLTFQEVENFFTFLKNINDVDTALSFYHMAGASLDKVTMQQVARTVAKVELSDHVCDVVFALFDCDGNGELSNKEFVSIMKQRLMRGLEKPKDMGFTRLMQAMWKSAQETAWDFALPKQ [C463S] | with no effect
